Measured values as given in publication PMC12707363.

Legend:
[1] = SEC; analytical SEC (AdvanceBio SEC 200 Å) of the purified Int^N precursor alone; each protein diluted to 10 µM and incubated for 24 h at 15 °C before the run; monomer against soluble high-MW aggregates eluting at the void volume
[2] = SEC; SEC of the Int^N precursors with the native single cysteine (Figure S3c), no reducing agent; conditions not shown

MBP‐CP21^N(C43S)‐H6
percent soluble high-MW aggregates [1]: 77%

MBP‐CP21^N‐H6
percent aggregated species [2]: 90%

MBP‐GOM^N(C57S)‐H6
percent soluble high-MW aggregates [1]: 76%

MBP‐GOM^N‐H6
percent aggregated species [2]: 78%
